Test results reported in patent US20230201308A1, “TREATMENT OF CORONAVIRUS INFECTION WITH […]” (Eiger Biopharmaceuticals, Inc., priority 2020, published 2023).

Legend:
[1] = tested on: SARS-CoV-2; assay: Second trial: outpatients with mild to moderate COVID-19, SARS-CoV-2 RNA viral load and clearance; assay type: in vivo, human
Experimental: Using the methods and criteria described above in Examples 1-3, a second trial was performed to assess interferon lambda for immediate antiviral therapy at diagnosis in COVID-19 infections. The second trial included a randomized trial of pegylated interferon lambda in outpatients with mild to moderate COVID-19 infection.
Thirty participants were randomly assigned to receive 180 mcg pegylated interferon lambda-1a, and 30 participants were assigned to receive a saline placebo. Patients were followed for 14 days. Nasopharyngeal samples were collected. The baseline SARS-CoV-2 viral load in the interferon lambda group was 6.2 log10 copies/mL and was 4.9 log10 copies/mL in the placebo group. In the interferon lambda group (19 subjects) and placebo (16 subjects) groups, there were a total of 35 subjects with viral loads great or equal to 6 log10 copies/mL.

[2] = tested on: SARS-CoV-2; assay: Third trial (TOGETHER): virological assessment, quantitative real-time PCR of mid-turbinate swabs; assay type: in vivo, human; details: for proportion of participants with a negative swab for SARS-CoV-2 RNA: Canadian cohort
[3] = baseline RNA above 10^6 copies/mL
[4] = baseline viral load below 10^6 copies/mL
[5] = Day 7, high baseline viral load

B1: pegylated interferon lambda-1a (protein)
chain: MKPTTTGKGCHIGRFKSLSPQELASFKKARDALEESLKLKNWSCSSPVFPGNWDLRLLQVRERPVALEAELALTLKVLEAAAGPALEDVLDQPLHTLHHILSQLQACIQPQPTAGPRPRGRLHHWLHRLQEAPKKESAGCLEASVTFNLFRLLTRDLKYVADGNLSLRTSTHPEST
modifications: PEG
notes: 180 mcg subcutaneous injection
OR of response (clearance) at Day 7 vs Placebo ([1]; Adjusted for Asymptomatic at baseline, all patients): 2.91 | OR of response (clearance) at Day 7 vs Placebo ([1]; Adjusted for Asymptomatic at baseline, ≥10E6 copies/mL): 0.00 | OR of response (clearance) at Day 7 vs Placebo ([1]; Adjusted for BMI, all patients): 2.37 | OR of response (clearance) at Day 7 vs Placebo ([1]; Adjusted for BMI, ≥10E6 copies/mL): 6.73 | OR of response (clearance) at Day 7 vs Placebo ([1]; Adjusted for IFNL4 genotype, all patients): 2.24 | OR of response (clearance) at Day 7 vs Placebo ([1]; Adjusted for IFNL4 genotype, ≥10E6 copies/mL): 7.66 | OR of response (clearance) at Day 7 vs Placebo ([1]; Adjusted for age, all patients): 2.48 | OR of response (clearance) at Day 7 vs Placebo ([1]; Adjusted for age, ≥10E6 copies/mL): 9.42 | OR of response (clearance) at Day 7 vs Placebo ([1]; Adjusted for comorbidity, all patients): 2.35 | OR of response (clearance) at Day 7 vs Placebo ([1]; Adjusted for comorbidity, ≥10E6 copies/mL): 10.46 | OR of response (clearance) at Day 7 vs Placebo ([1]; Adjusted for sex, all patients): 2.36 | OR of response (clearance) at Day 7 vs Placebo ([1]; Adjusted for sex, ≥10E6 copies/mL): 6.44 | OR of response (clearance) at Day 7 vs Placebo ([1]; Adjusted for viral load at baseline, all patients): 4.12 | OR of response (clearance) at Day 7 vs Placebo ([1]; Adjusted for viral load at baseline, ≥10E6 copies/mL): 8.16 | OR of response (clearance) at Day 7 vs Placebo ([1]; Adjusted for viral load with interaction, baseline 10E3 copies/mL): 1.45 | OR of response (clearance) at Day 7 vs Placebo ([1]; Adjusted for viral load with interaction, baseline 10E4 copies/mL): 1.88 | OR of response (clearance) at Day 7 vs Placebo ([1]; Adjusted for viral load with interaction, baseline 10E5 copies/mL): 2.43 | OR of response (clearance) at Day 7 vs Placebo ([1]; Adjusted for viral load with interaction, baseline 10E6 copies/mL): 3.14 | OR of response (clearance) at Day 7 vs Placebo ([1]; Adjusted for viral load with interaction, baseline 10E7 copies/mL): 4.05 | OR of response (clearance) at Day 7 vs Placebo ([1]; Adjusted for viral load with interaction, baseline 10E8 copies/mL): 5.23 | OR of response (clearance) at Day 7 vs Placebo ([1]; Adjusted for viral load with interaction, baseline 10E9 copies/mL): 6.76 | OR of response (clearance) at Day 7 vs Placebo ([1]; Crude, all patients): 2.32 | OR of response (clearance) at Day 7 vs Placebo ([1]; Crude, ≥10E6 copies/mL at baseline): 6.25 | viral load decline greater than in placebo group ([1]; Day 3, all patients): 0.82 log copies/mL | viral load decline greater than in placebo group ([1]; Day 5, all patients): 1.67 log copies/mL | viral load decline greater than in placebo group ([1]; Day 7, all patients): 2.42 log copies/mL | viral load decline greater than in placebo group ([1]; Day 14, all patients): 1.77 log copies/mL | median time to viral clearance [1, 3]: 7 (95% CI 6.2-7.8) days | undetectable at Day 7, participants [1, 3]: 15 of 19 | undetectable at Day 7, proportion [1, 3]: 79% | OR undetectable at Day 7 vs placebo [1, 4]: 0.35 | undetectable at Day 7, participants [1, 4]: 9 of 11 | undetectable at Day 7, proportion [1, 4]: 82% | negative for SARS-CoV-2 RNA, participants ([1]; by Day 7, all patients): 24/30 | negative for SARS-CoV-2 RNA, proportion ([1]; by Day 7, all patients): 80% | viral level decrease in absolute terms ([1]; by Day 7, all patients): 5.5 log copies/mL | viral load decline ([1]; by Day 7, baseline viral load at or above 10E6 copies/mL): 7.17 log copies/mL | detectable virus at Day 7, participants ([1]; high baseline viral load): 4 of 19 | detectable virus at Day 7, proportion ([1]; high baseline viral load): 21% | OR of response at Day 7 for viral load at baseline within the IFN Lambda group ([1]; interaction model, all patients): 0.82 | shedding of infectious virus at day 7 ([1]; interferon lambda group): all subjects were below the level of shedding infectious virus at day 7 | proportion of participants with a negative swab for SARS-CoV-2 RNA ([2]; Day 0 post injection): 0 | proportion of participants with a negative swab for SARS-CoV-2 RNA ([2]; Day 1 post injection): 0 | proportion of participants with a negative swab for SARS-CoV-2 RNA ([2]; Day 2 post injection): 7 | proportion of participants with a negative swab for SARS-CoV-2 RNA ([2]; Day 3 post injection): 27 | proportion of participants with a negative swab for SARS-CoV-2 RNA ([2]; Day 4 post injection): 40 | proportion of participants with a negative swab for SARS-CoV-2 RNA ([2]; Day 5 post injection): 60 | proportion of participants with a negative swab for SARS-CoV-2 RNA ([2]; Day 6 post injection): 64 | odds ratio, below the limit of quantitation vs placebo [2, 5]: 2.13 | patients below the limit of quantitation [2, 5]: 50.5% | treatment effect on viral load (Beta) ([2]; Day 7, high baseline viral load (≥192,841,278 copies/mL)): −1.01 | median viral load decline from baseline ([2]; Day 7, hospitalized patients): 7.19 log copies/mL | proportion of participants with a negative swab for SARS-CoV-2 RNA ([2]; Day 7 post injection): 86 | proportion of participants with a negative swab for SARS-CoV-2 RNA ([2]; Day 8 post injection): 92 | proportion of participants with a negative swab for SARS-CoV-2 RNA ([2]; Day 9 post injection): 85 | proportion of participants with a negative swab for SARS-CoV-2 RNA ([2]; Day 10 post injection): 92 | proportion of participants with a negative swab for SARS-CoV-2 RNA ([2]; Day 11 post injection): 100 | proportion of participants with a negative swab for SARS-CoV-2 RNA ([2]; Day 12 post injection): 100 | proportion of participants with a negative swab for SARS-CoV-2 RNA ([2]; Day 13 post injection): 100 | proportion of participants with a negative swab for SARS-CoV-2 RNA ([2]; Day 14 post injection): 100 | median log decline in viral load ([2]; by Day 7, high baseline viral load): 8.29 | viral loads by Day 7 ([2]; final analysis): significantly lowered | treatment effect on viral load (Beta) ([2]; low baseline viral load group): 0.22
